Measured values from publication PMC8990011.

Target: Bax, endogenous in HeLa cells (human (endogenous in HeLa)) (UniProt Q07812)
Sequence (Q07812 whole entry): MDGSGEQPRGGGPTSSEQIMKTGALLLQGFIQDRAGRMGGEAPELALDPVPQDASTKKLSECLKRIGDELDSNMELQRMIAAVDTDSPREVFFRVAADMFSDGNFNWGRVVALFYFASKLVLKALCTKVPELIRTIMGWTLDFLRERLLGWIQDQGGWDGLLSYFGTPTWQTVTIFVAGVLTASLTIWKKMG

- inhibition of cBid- and Bim-triggered Bax-pore formation in ANTS/DPX liposomes (100 nM Bax, 20 nM cBid or Bim, 8-500 nM Bcl-xL protein), IC50: 80 nM
Substance: 6xHis-Bcl-xL^K87D (from UniProt Q07817-1 1-233) (natural protein)
